# Measured values as given in publication PMC2626169 (Developmental biology, 2008).
# T1: SEL-10(G567E) (C. elegans, UniProt Q93794 1-587, G567E)
# T1 sequence (looked up): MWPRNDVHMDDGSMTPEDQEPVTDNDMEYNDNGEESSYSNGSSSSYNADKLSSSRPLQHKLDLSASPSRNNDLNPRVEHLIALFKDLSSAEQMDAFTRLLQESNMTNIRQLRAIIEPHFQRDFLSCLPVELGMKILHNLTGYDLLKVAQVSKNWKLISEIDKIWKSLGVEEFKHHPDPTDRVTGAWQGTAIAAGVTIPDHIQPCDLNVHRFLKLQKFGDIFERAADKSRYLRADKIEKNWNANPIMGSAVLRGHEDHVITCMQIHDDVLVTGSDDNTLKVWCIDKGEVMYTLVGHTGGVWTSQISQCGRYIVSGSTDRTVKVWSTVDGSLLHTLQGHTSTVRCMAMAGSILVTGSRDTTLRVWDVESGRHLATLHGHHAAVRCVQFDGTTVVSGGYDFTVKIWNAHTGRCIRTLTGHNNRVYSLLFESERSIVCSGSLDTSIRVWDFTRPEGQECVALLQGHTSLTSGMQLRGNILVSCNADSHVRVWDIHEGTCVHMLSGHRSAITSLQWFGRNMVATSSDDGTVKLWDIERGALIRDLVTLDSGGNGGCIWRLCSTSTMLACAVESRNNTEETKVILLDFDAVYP
# T2: SEL-10, wild type (C. elegans, UniProt Q93794 1-587)
# T2 sequence (looked up): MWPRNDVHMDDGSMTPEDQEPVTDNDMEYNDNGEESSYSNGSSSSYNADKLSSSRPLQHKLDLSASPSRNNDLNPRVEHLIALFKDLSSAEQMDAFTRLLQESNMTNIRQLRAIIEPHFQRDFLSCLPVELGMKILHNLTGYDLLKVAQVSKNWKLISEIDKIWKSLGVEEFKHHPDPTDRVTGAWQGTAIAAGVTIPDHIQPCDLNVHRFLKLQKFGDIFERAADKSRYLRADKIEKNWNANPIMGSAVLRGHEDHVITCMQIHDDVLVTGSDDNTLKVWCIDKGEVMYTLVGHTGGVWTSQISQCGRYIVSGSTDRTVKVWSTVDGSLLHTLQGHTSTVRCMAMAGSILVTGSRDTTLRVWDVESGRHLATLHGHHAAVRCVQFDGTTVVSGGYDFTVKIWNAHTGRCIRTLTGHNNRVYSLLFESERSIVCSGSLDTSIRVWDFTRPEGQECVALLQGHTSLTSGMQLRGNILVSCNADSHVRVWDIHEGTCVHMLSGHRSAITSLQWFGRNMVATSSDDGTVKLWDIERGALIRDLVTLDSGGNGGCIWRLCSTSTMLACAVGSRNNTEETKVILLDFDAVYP
# Columns and labels:
# SEL-10(G567E) = target: T1, SEL-10(G567E); assay: two-hybrid
# SEL-10, wild type = target: T2, SEL-10, wild type; assay: two-hybrid
"beta-galactosidase activity (CPRG), percent of SKR-1/SEL-10 (SEL-10(G567E))","beta-galactosidase activity (CPRG), percent of SKR-1/SEL-10 (SEL-10, wild type)",Binder
3%,–,"SKR-1 (Skp1-related 1), wild type (natural protein, C. elegans, UniProt G5ECU1 1-176, looked up) MADQKKVSEAAKEREIKISSSDNEIFLVPRNVIRLSNTINTLLMDLGLDDEEGTNAEPIPVQNVTASILKKVISWCNHHHSDPISTEDSDNREKRTDDIGSWDVEFLKVDQGTLFELILAANYLDIKGLLDVTCKTVANMIKGKSPEEIRRTFNIKNDFTPEEEEQIRKENAWCED"
0.4%,37%,"SKR-1(M140I) (natural protein, C. elegans, UniProt G5ECU1 1-176, looked up) MADQKKVSEAAKEREIKISSSDNEIFLVPRNVIRLSNTINTLLMDLGLDDEEGTNAEPIPVQNVTASILKKVISWCNHHHSDPISTEDSDNREKRTDDIGSWDVEFLKVDQGTLFELILAANYLDIKGLLDVTCKTVANIIKGKSPEEIRRTFNIKNDFTPEEEEQIRKENAWCED"
